Laboratory results published in paper doi:10.1101/465575 (bioRxiv, 2018).

T1: Rv0081-S/Q-A S48A;S49A;S52A;Q53A (Mycobacterium tuberculosis) (UniProt P9WMI7)
T1 sequence: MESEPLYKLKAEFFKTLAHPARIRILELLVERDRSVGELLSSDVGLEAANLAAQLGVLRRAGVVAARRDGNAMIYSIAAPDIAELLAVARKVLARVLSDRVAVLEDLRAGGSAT


Columns and labels:
[1] = molecular target: T1, Rv0081-S/Q-A S48A;S49A;S52A;Q53A (Mycobacterium tuberculosis); assay: SPR
SEC-MALS = molecular target: the molecule itself; assay: SEC-MALS

| Molecule | Kd [1] [µM] | stoichiometry N (SEC-MALS) |
| --- | --- | --- |
| ATCCGCACTATCTGATAAATTCTTCAACTCGTC (double strand) [ds-Wt] | 19.6 |  |
| Rv0081 transcription factor of Mycobacterium tuberculosis (natural protein) MESEPLYKLKAEFFKTLAHPARIRILELLVERDRSVGELLSSDVGLESSNLSQQLGVLRRAGVVAARRDGNAMIYSIAAPDIAELLAVARKVLARVLSDRVAVLEDLRAGGSAT |  | 2 |
